Assay [1] addresses T1, mouse CNTN4-rabbit Fc (mouse; rabbit, UniProt Q69Z26 19-1000, limits assumed).
T1 construct: not shown: rabbit Fc
T1 sequence (looked up): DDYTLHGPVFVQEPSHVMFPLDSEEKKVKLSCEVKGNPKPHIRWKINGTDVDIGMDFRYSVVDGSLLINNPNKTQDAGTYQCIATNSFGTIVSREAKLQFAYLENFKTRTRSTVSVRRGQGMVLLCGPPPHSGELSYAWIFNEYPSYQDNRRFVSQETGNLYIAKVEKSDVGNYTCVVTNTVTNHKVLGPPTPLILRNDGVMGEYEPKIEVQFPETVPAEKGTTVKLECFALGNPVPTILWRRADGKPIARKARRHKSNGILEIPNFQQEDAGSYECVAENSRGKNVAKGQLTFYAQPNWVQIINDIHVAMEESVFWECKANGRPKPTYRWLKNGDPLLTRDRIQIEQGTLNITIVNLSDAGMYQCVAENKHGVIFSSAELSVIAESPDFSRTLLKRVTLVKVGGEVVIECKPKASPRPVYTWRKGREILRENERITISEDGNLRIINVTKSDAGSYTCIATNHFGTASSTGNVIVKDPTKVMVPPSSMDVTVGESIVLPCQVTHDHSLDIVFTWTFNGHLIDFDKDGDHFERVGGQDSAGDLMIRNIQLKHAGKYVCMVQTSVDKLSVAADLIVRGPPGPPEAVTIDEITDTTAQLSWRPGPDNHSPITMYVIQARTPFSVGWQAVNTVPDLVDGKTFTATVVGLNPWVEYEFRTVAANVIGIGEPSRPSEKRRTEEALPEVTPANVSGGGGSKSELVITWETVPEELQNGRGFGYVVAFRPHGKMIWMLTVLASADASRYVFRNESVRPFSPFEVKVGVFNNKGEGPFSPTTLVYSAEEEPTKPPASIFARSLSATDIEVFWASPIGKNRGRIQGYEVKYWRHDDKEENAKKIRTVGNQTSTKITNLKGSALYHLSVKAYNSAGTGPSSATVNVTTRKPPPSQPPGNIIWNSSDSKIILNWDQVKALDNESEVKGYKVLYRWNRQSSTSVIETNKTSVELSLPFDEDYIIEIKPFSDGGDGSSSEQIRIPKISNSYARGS
Put plainly: ELISA, plate coated with antigen-rabbit Fc, anti-human kappa-HRP.

Assay [2] concerns the target T2, human CNTN4-rabbit Fc (human; rabbit, UniProt Q8IWV2 19-1000, limits assumed).
T2 construct: not shown: rabbit Fc
T2 sequence (looked up): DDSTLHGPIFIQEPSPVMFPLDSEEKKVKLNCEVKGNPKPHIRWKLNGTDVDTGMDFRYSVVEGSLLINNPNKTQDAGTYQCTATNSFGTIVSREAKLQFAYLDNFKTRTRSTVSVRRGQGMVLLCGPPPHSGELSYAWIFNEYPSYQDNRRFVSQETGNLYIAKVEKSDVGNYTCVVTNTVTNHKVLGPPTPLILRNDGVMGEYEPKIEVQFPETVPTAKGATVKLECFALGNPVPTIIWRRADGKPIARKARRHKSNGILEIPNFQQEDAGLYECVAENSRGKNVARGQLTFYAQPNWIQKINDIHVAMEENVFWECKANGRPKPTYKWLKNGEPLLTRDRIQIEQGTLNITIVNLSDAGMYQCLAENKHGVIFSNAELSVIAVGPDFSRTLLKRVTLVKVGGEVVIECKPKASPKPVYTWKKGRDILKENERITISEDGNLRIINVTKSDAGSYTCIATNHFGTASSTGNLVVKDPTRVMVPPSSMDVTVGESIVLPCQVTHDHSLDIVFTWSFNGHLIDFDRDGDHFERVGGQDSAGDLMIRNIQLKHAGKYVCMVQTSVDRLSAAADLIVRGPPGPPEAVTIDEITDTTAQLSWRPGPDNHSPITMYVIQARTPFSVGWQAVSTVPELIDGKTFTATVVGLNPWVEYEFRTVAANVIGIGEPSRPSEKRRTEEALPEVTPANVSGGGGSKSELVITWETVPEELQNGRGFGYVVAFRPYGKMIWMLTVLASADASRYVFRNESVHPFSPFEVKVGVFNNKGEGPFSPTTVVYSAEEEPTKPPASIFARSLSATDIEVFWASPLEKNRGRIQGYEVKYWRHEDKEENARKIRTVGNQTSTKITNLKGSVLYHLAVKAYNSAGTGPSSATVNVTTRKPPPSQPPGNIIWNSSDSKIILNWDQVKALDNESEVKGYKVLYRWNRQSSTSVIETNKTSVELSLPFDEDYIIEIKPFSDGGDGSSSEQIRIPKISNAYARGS
The assay is described as above.

Assay [3] concerns the target T3, human CNTN4 antigen expressed on the cell membrane of 293FT cells (human) (UniProt Q8IWV2).
T3 sequence (looked up): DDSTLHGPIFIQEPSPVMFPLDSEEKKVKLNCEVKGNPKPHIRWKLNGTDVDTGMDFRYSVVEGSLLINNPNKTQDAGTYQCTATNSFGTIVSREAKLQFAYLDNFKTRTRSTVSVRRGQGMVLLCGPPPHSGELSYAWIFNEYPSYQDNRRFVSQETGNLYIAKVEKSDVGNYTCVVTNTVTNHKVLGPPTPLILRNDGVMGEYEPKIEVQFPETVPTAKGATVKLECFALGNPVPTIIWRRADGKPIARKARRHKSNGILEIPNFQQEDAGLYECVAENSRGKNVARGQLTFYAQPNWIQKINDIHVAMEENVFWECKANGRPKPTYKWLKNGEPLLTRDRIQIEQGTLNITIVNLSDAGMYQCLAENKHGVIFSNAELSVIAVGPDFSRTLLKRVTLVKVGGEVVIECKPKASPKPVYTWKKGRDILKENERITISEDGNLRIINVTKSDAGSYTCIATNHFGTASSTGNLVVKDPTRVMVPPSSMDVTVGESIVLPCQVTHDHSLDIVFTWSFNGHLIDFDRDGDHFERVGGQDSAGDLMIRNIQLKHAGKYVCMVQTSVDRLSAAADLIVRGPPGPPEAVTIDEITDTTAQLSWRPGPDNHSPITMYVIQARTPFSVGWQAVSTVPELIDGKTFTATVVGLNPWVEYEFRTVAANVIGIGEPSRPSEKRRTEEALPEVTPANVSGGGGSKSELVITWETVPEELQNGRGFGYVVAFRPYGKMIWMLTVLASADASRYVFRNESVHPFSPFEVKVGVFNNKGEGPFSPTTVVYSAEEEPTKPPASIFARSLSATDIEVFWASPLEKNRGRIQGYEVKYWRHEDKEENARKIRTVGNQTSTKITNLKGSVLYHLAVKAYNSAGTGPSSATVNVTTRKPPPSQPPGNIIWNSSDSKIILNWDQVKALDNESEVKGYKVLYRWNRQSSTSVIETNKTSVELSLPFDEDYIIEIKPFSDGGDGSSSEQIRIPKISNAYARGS
Nature of the assay: FACS, 293FT cells transfected with human CNTN4, 40 ug/mL, anti-hCk-PE.

Assay [4] addresses T1, mouse CNTN4-rabbit Fc. Nature of the assay: ELISA, plate coated with antigen-rabbit Fc, anti-human IgG Fc-HRP. As for the experimental part:
(§1) An ELISA tests were performed on a total of 25 scFv-hCks and a total of 27 IgGs for which the expression was confirmed in Example 1.2. An ELISA plate was coated with 200 ng of antigens (human CNTN4-rabbit Fc or mouse CNTN4-rabbit Fc). 200 ng of a negative control (human antigen-rabbit Fc) for a tagging protein was used. For antibody binding, anti-CNTN4 scFv-hCk was serially diluted from a maximum of 1 μM to 0.001 nM by 1/10×each, and anti-CNTN4 IgG was serially diluted from a maximum of 10 nM to 0.00001 nM by 1/10×each, thereby binding to the antigen. Anti-human kappa-HRP or anti-human IgG Fc-HRP was used as the secondary antibody for antibody detection. Color was developed using ABTS, which is a color developing reagent, and the absorbance at 405 nm was measured.
(An ELISA detects its analyte on a solid surface through an enzyme-linked reagent.)

Assay [5] deals with T2, human CNTN4-rabbit Fc. The assay is described as above. The method, then:
as §1

Assay [6] deals with T4, human CNTN4 antigen expressed on the cell membrane of 293FT cells (human, UniProt Q8IWV2 19-1000).
T4 construct: whole, on cells; also called Human CNTN4 transfected cell
T4 sequence (looked up): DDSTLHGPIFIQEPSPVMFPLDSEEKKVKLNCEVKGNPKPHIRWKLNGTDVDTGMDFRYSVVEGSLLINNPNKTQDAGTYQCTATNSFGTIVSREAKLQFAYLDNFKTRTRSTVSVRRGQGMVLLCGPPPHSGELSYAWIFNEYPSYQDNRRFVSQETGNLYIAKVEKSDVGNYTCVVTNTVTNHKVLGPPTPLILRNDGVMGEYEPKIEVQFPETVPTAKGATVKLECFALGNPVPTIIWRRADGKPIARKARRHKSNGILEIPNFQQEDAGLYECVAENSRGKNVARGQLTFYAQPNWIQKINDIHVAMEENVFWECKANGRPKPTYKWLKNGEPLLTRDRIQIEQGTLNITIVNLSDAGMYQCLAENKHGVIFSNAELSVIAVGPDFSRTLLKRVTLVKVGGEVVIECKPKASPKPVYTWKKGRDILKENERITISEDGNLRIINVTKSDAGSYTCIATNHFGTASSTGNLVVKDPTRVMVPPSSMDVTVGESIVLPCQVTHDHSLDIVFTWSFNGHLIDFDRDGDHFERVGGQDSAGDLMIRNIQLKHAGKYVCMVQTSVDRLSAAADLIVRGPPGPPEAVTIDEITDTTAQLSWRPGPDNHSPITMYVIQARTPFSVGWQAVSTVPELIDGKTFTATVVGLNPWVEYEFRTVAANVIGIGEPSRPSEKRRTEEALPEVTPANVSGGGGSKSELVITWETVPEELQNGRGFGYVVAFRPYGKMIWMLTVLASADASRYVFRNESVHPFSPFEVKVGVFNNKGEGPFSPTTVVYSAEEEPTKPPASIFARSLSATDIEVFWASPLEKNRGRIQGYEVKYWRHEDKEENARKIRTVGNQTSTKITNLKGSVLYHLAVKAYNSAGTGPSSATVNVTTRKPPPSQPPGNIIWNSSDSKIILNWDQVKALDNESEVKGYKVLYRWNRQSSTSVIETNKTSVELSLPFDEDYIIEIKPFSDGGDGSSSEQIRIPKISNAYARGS
Nature of the assay: FACS, 293FT cells transfected with human CNTN4, 40 ug/mL, anti-hFc-PE. (Flow cytometry measures light scatter and fluorescence of single cells or particles in a stream.)

B1: anti-CNTN4 scFv-hCk S4 (scFv, part only; not given: linker and kappa constant region, not shown: a dimerising Fc or GST)
scFv, part: ALTQPSSVSANPGESVKITCSGGGSSYYGWYQQKSPGSAPVTLIYQNTNRPSNIPSRFSGSGSGSTGTLTITGVRAEDEAVYYCGGYDGSTDVFGAGTTLTVLAVTLDESEGGLQTPGGALSLVCKASGFTFSSFNMFWVRQAPGKGLEYVAEISGGGGSTWYASAVKGRATISRDNGQSTVRLQLNNLRAEDTGTYYCAKSADTWSYGAATIDAWGHGTEVIVSS
As to B1, the EC50 in the assay with mouse CNTN4-rabbit Fc [1] is 1.15 nM; with human CNTN4-rabbit Fc [2], 2.6 nM. For the same molecule, the Shift % in assay [3] was 15.4%.

B2: anti-CNTN4 scFv-hCk S131 (scFv, part only; not given: linker and kappa constant region, not shown: a dimerising Fc or GST)
scFv, part: ALTQPSSVSANLGGTVKITCSGGGSSYYGWYQQKSPGSAPVTLIYQNTNRPSNIPSRFSGSGSGSTGTLTITGVRAEDEAVYYCGGYDGSTDVFGAGTTLTVLAVTLDESEGGLQTPGGALSLVCKASGFTFSSFNMFWVRQAPGKGLEYVAEISGGGGSTWYAPAVKGRATISRDNGQSTVRLQLNNLRAEDTGTYYCAKSADTWSYGAATIDAWGHGTEVIVSS
B2: the concentration for a half-maximal effect (EC50) stood at 0.56 nM with mouse CNTN4-rabbit Fc [1] and 0.74 nM in the assay with human CNTN4-rabbit Fc [2]. The Shift % in assay [3] is 16.6%.

B3: anti-CNTN4 scFv-hCk S99 (scFv, part only; not given: linker and kappa constant region, V domains shown, not shown: another chain or arm of the molecule; a dimerising Fc or GST; small tags and cut ends)
VL: ALTQPSSVSANPGETVKITCSGGASYAGNYYYGWYQQKSPGSAPVTVIYNNNQRPSDIPSRFSGSLSGSTNTLTITGVQADDEAVYFCGSDDSSAGYTGIFGAGTTLTVL
VH: AVTLDESGGGLQTPGGALSLVCKASEFTFSGYGMHWVRQAPGKGLEFVAEISNTGSWTGYGAAVKGRATISRDNGQSTVRLQLNNLKADDTATYYCAKVGGRGWCGRSGCADDIDAWGHGTEVIVSS
B3: the figures for the half-maximal effective concentration (EC50) with mouse CNTN4-rabbit Fc [1] and in the assay with human CNTN4-rabbit Fc [2] were 3.64 nM and 8.34 nM, respectively. The Shift % in assay [3] came to 20.5%.

B4: anti-CNTN4 IgG A35SF90 (antibody, V domains shown)
VH: AVTLDESGGGLHTPGGALSLVCKASGFTFSSYGMAWVRQAPGKGLEWVAGITSSGSSAGYGPAVKGRATISRDNGQSTVRLQLNNLRAEDTATYYCAKDGYIYSGADSDSIDAWGHGTEVIVSS
VL: ALTQPSSVSANLGGTVEITCSGSNNNNYGWYQQKTPGSAPVTLIYNNNQRPSDIPSRFSGSKSGSTGTLTITGVRAEDEAVYYCGGYDSSIYFDIFGAGTTLTVL
notes: human IgG4 (S228P)
For B4, the EC50 with mouse CNTN4-rabbit Fc [4] and with human CNTN4-rabbit Fc [5] was 0.01 nM in each case. Moreover, the Shift % in assay [6] is 82.8%.

B5: anti-CNTN4 scFv-hCk S83 (scFv, part only; not given: linker and kappa constant region, not shown: a dimerising Fc or GST)
scFv, part: ALTQPSSVSANLGETVKITCSGGGGYSGSYYYGWYQQKSPAGAPDTVIYSNNQRPSNIPSRFSGSKSGSTGTLTITEDHAEDEAVYYCGSIDSSSNPGIFGAGTTLTVLAVTLDKSGGGLHTPGGALSLVCKASGFTFSRYIMQWVLQAPGKVLEWVASIRNGTTPKYGAAVKGRATISRDNGQSTVMLQLNSLTYDDTDAYYCDRGDDGDCICGGCAASIDIWCYATEVIVSS
Turning to B5, in assay [3], the Shift % worked out at 5.27%.

B6: anti-CNTN4 scFv-hCk S6 (scFv, part only; not given: linker and kappa constant region, not shown: a dimerising Fc or GST)
scFv, part: ALTQPSSVSANPGETVKITCSGGSGNYGWYQQKSPGSAPVTVIYNGNNRPSDIPSRFSGSGSGSTNTLAITGVQAEDEAVYFCGGYDGTIDAFGAGTTLTVLAVTLDESEGGLQTPGGALSLVCKASGFTFSSFNMFWVRQAPGKGLEYVAEISGGGGSTWYAPAVKGRATISRDNGQSTVRLQLNNLRAEDTGTYYCAKSADTWSYGAATIDAWGHGTEVIVSS
For B6, the values for the 50% effective concentration (EC50) with mouse CNTN4-rabbit Fc [1] and in the assay with human CNTN4-rabbit Fc [2] were 1.85 nM and 0.37 nM, respectively. The Shift % in assay [3] is 14.7%.

What is called EC50 is the concentration at which the effect is half-maximal. Read a low EC50 as higher potency in that assay.
